Measured values from US20110288036A1 (published 2011).
Where no end group is shown, it is not given here.

Columns and labels:
Assay in all cases: cell-based or functional assay
[1] = molecular target: JNK (c-Jun N-terminal Kinase)
[2] = molecular target: T1, MKK4 (Mitogen-Activated Protein Kinase Kinase 4) (UniProt P45985 1-399)
T1 sequence: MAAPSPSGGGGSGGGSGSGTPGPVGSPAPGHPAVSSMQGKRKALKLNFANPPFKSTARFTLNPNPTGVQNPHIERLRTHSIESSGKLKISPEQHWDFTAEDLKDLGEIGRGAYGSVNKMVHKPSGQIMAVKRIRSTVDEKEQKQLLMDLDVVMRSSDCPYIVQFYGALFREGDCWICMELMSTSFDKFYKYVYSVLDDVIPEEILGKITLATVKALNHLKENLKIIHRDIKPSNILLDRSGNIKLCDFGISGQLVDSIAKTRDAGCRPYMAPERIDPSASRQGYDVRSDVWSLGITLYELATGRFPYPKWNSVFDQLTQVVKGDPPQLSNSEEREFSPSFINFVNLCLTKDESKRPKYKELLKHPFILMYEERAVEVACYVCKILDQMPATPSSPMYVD

[3] = molecular target: T2, MKK6 (Mitogen-Activated Protein Kinase Kinase) (UniProt P52564 1-334)
T2 sequence: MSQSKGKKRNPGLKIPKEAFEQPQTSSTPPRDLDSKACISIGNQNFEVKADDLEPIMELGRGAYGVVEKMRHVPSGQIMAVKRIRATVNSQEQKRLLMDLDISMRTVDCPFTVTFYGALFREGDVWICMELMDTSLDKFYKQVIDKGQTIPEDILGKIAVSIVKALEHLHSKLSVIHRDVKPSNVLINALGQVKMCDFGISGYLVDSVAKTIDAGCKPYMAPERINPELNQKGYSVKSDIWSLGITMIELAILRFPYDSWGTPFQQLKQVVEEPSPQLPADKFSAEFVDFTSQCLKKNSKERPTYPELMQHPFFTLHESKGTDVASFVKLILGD

MEK1 = MEK1 (UniProt Q02750 1-393)
[4] = molecular target: T3, PRAK (p38-Regulated/Activated Protein Kinase) (UniProt Q8IW41 1-473)
T3 sequence: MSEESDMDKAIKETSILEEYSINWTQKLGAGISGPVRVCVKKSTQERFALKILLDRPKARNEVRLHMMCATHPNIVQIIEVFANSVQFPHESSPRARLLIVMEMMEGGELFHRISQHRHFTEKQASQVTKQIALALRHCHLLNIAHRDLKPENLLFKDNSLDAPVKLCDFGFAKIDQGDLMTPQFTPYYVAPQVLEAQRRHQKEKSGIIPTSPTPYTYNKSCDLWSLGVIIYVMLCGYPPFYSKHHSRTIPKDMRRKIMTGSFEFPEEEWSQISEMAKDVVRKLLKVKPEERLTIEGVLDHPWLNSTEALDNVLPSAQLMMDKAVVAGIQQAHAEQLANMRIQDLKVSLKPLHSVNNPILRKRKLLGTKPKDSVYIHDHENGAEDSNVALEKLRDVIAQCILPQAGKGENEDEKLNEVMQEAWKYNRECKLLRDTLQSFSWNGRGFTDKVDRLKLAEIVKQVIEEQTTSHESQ

[5] = molecular target: p38 MAPK (p38 Mitogen-Activated Protein Kinase)

B1: MMI-0100 (YARAAARQARAKALARQLGVAA; SEQ ID NO: 1) (peptide)
peptide: YARAAARQARAKALARQLGVAA
modifications: not fully specified (C-terminus)
- Percent Activity (radiometric kinase assay, 100 µM peptide) [1]: 92 percent activity
- Percent Activity (radiometric kinase assay, 100 µM peptide) [2]: 90 percent activity
- Percent Activity (radiometric kinase assay, 100 µM peptide) [3]: 50 percent activity
- Percent Activity (radiometric kinase assay, 100 µM peptide) (MEK1): 68 percent activity
- Percent Activity (radiometric kinase assay, 100 µM peptide) [4]: 100 percent activity
- Percent Activity (radiometric kinase assay, 100 µM peptide) [5]: 60 percent activity
